Results: the Immune Epitope Database (IEDB)
pKd: −log10 of the molar value.

Key:
[1] = molecular target: HLA-A*01:01; assay: IEDB peptide-MHC binding, purified MHC/competitive/radioactivity; filed as Kd, often an IC50 or EC50 that approximates it; ≥ and ≤ were set here for values at or beyond the usual limits of such assays
[2] = molecular target: HLA-A*23:01; assay: as above
[3] = molecular target: HLA-A*24:02; assay: as above
[4] = molecular target: HLA-A*26:01; assay: as above
[5] = molecular target: HLA-A*29:02; assay: as above
[6] = molecular target: HLA-A*30:02; assay: as above
[7] = molecular target: HLA-B*07:02; assay: as above
[8] = molecular target: HLA-B*08:01; assay: as above
[9] = molecular target: HLA-A*02:02; assay: as above; details: source organism: Vaccinia virus WR
[10] = molecular target: HLA-A*02:03; assay: as above; details: source organism: Vaccinia virus WR
[11] = molecular target: HLA-A*02:06; assay: as above
[12] = molecular target: HLA-B*53:01; assay: as above
[13] = molecular target: HLA-A*03:01; assay: as above; details: source organism: Dengue virus 2 Peru/IQT2913/1996
[14] = molecular target: HLA-A*30:01; assay: as above
[15] = molecular target: HLA-B*46:01; assay: IEDB peptide-MHC binding, purified MHC/direct/fluorescence; filed as Kd, often an IC50 or EC50 that approximates it; ≥ and ≤ were set here for values at or beyond the usual limits of such assays; details: source organism: West Nile virus
[16] = source organism: SARS coronavirus Tor2
[17] = source organism: Mammarenavirus lassaense
[18] = source organism: Dengue virus 4 Philippines/H241/1956
[19] = source organism: Dengue virus 1 Brazil/97-11/1997
[20] = source organism: Mammarenavirus guanaritoense
[21] = source organism: Dengue virus 2 Jamaica/1409/1983
[22] = source organism: Vaccinia virus WR
[23] = source organism: Dengue virus 3 Martinique/1243/1999
[24] = source organism: Dengue virus 2 Peru/IQT2913/1996
[25] = source organism: Mammarenavirus brazilense
[26] = source organism: Dengue virus 4 Dominica/814669/1981
[27] = source organism: Mammarenavirus juninense
[28] = source organism: Mammarenavirus tacaribeense
[29] = source organism: Dengue virus 3 Singapore/8120/1995

With AFRDVLVVL the pKd [1, 16] was 4.80, the pKd [2, 16] was 5.71 and the pKd [3, 16] was 5.17. For the same sequence, the pKd [4, 16] was 4.89, the pKd [5, 16] was 4.85 and the pKd [6, 16] was 5.01.
In the case of AGFSAGLTY, the pKd [1, 17] was ≤ 4.62, the pKd [2, 17] was ≤ 4.36 and the pKd [3, 17] was ≤ 4.11. The pKd [4, 17] was ≤ 4.11, the pKd [5, 17] was 7.20 and the pKd [6, 17] was 6.28.
AGPFSQHNY was tested, and the pKd [6, 18] was 6.33.
APHVGLGLET showed a pKd [7, 19] of 5.94.
With ASLGPLRETY the pKd [1, 16] was ≤ 3.94, the pKd [2, 16] was ≤ 4.15 and the pKd [3, 16] was ≤ 4.15. The pKd [4, 16] was ≤ 4.09, the pKd [5, 16] was 6.25 and the pKd [6, 16] was 6.81.
With AYEHKNRSRL the pKd [2, 20] was 4.99, the pKd [3, 20] was ≤ 4.58 and the pKd [5, 20] was ≤ 4.68.
AYRIKQRGIL gave a pKd [8, 21] of 6.18.
AYSFLPGVY was tested, and the pKd [1, 16] was 5.19, the pKd [2, 16] was 5.13 and the pKd [3, 16] was 7.51. It also gave a pKd [4, 16] of 5.19, a pKd [5, 16] of 8.34 and a pKd [6, 16] of 9.57.
For DQLSKFRTL, the pKd [8, 22] was 8.13.
DYDCVSFCY was tested, and the pKd [1, 16] was ≤ 4.24, the pKd [2, 16] was ≤ 4.68 and the pKd [3, 16] was ≤ 4.69. For the same sequence, the pKd [4, 16] was 4.75, the pKd [5, 16] was 6.84 and the pKd [6, 16] was 5.85.
In the case of DYSVLYNSTF, the pKd [1, 16] was ≤ 4.15, the pKd [2, 16] was 6.80 and the pKd [3, 16] was 7.62. The pKd [4, 16] was 5.37, the pKd [5, 16] was 5.60 and the pKd [6, 16] was ≤ 4.22.
Sequence EALYYVHSL has a pKd [9] of 4.85, a pKd [10] of 5.24 and a pKd [11, 22] of 4.83. The pKd [8, 22] was 8.68.
EKEENMVKSL was tested, and the pKd [8, 23] was 4.97.
Sequence EKWKRQLNSL has a pKd [8, 18] of 6.60.
Work on ELCEDTMTY yielded a pKd [4, 19] of 5.76.
For EPPFGDSYII, the pKd [12, 21] was 6.44.
ETAWDFGSVG gave a pKd [4, 18] of 6.86.
FFINFFNLL was tested, and the pKd [8, 22] was 6.83.
Sequence FGIFTTNIW has a pKd [12, 19] of 6.77.
Work on FLGEDGCWY yielded a pKd [1, 18] of 6.56.
Work on FVEGVSGGSW yielded a pKd [4, 21] of 4.85 and a pKd [12, 21] of 7.31.
GPMPVTVASA gave a pKd [7, 19] of 7.27.
In the case of GVIITWIGM, the pKd [4, 21] was 4.80.
HLAIMAVFKM showed a pKd [4, 18] of 5.02.
For HMIVSRQEK, the pKd [13] was 7.67 and the pKd [14, 24] was 7.75.
In the case of IDETCEHEY, the pKd [1, 16] was 4.96, the pKd [2, 16] was ≤ 4.11 and the pKd [3, 16] was ≤ 4.11. For the same sequence, the pKd [4, 16] was ≤ 4.49, the pKd [5, 16] was 5.55 and the pKd [6, 16] was 6.79.
In the case of IILWFFNAM, the pKd [8, 22] was 5.28.
In the case of IMAVLFVVTL, the pKd [8, 18] was 5.27.
IMRMRFKKG was tested, and the pKd [8, 22] was 7.20.
With IMRNLTNLL the pKd [2, 20] was 5.21, the pKd [3, 20] was ≤ 4.48 and the pKd [5, 20] was 6.52.
Work on IPLQWIASA yielded a pKd [7, 23] of 7.05.
Sequence KKKQRSGVL has a pKd [8, 19] of 5.64.
For KMETLQRKY, the pKd [6, 21] was ≤ 4.11.
With KREDLWCGSL the pKd [8, 18] was 5.33.
KVDAIDGEY showed a pKd [1, 21] of 6.02 and a pKd [6, 21] of 6.77.
For KWKNRLNAL, the pKd [8, 24] was 6.80.
LEKRHVLGRL was tested, and the pKd [8, 21] was 5.15.
LGLNSRSTSL gave a pKd [8, 19] of 7.40.
With LGRNKKPRL the pKd [8, 23] was 6.58.
With LLLLVAPAY the pKd [15] was ≤ 4.70.
LLLMRTSWA gave a pKd [8, 23] of 7.99.
For LQLKGMSYSM, the pKd [8, 21] was 7.15.
Work on LTHSINALI yielded a pKd [2, 25] of 6.00, a pKd [3, 25] of 5.17 and a pKd [5, 25] of 4.89.
With LTMKNKAWM the pKd [4, 23] was ≤ 4.34.
Sequence MLIPKSYAG has a pKd [8, 26] of 6.94.
Sequence MLLNRFTMA has a pKd [11, 19] of 8.29 and a pKd [8, 19] of 7.99.
For MTDKTPVHS, the pKd [1, 18] was 5.18.
MTTEDMLAVW showed a pKd [12, 21] of 6.45.
NPLTLTAAVL showed a pKd [8, 19] of 6.52.
PRRCMKPVIL showed a pKd [8, 21] of 5.61.
With PTEQVDTLL the pKd [1, 18] was 4.83.
With PYIGSRSQI the pKd [2, 27] was 6.51, the pKd [3, 27] was 5.97 and the pKd [5, 27] was ≤ 4.68.
RLKMDKLTL was tested, and the pKd [8, 19] was 6.57.
RLKSAVCYK was tested, and the pKd [14, 22] was 9.76.
In the case of RPLKEKEENL, the pKd [8, 21] was 5.74.
RPRWLDARV was tested, and the pKd [7, 26] was 8.77.
RPTPKGAVMD gave a pKd [7, 18] of 7.00.
RQWFFDLPLP was tested, and the pKd [14, 23] was 4.97.
RQWFLDLPLP gave a pKd [14, 21] of 4.94.
In the case of RTKFQNRAK, the pKd [14, 22] was 9.80.
For RVLLLTPEV, the pKd [14, 22] was 7.31.
For SAIFFTTSLF, the pKd [2, 20] was 7.09, the pKd [3, 20] was 6.34 and the pKd [5, 20] was 7.06.
SFYCDPKRFF was tested, and the pKd [2, 28] was 6.31, the pKd [3, 28] was 5.70 and the pKd [5, 28] was 6.81.
In the case of SPILSITISE, the pKd [7, 21] was 5.67.
In the case of SPLLLTSSQQ, the pKd [7, 21] was 5.91.
SPTSYLDVDL gave a pKd [7, 23] of 5.79.
Work on STRVEMGEA yielded a pKd [14, 21] of 7.86.
In the case of STVQQLTKRF, the pKd [4, 21] was 5.17.
In the case of TKKVRTNAA, the pKd [8, 23] was 7.36.
For VTTWEDVPY, the pKd [1, 29] was 6.28 and the pKd [6, 29] was 6.61.
Work on VVRPPFNML yielded a pKd [7, 18] of 7.69.
YPFFRKLVL showed a pKd [8, 22] of 8.23.
YTQMCDHRL showed a pKd [1, 19] of 5.24.
